Target: L1 ORF2p-3xFLAG (ORFeus-Hs, pLD401, WT) (human) (UniProt O00370)
Assay: affinity purification with mass spectrometry; On-bead RNase-sensitivity assay: ORF2p-3xFLAG (pLD401) captured on α-FLAG magnetic medium from HEK-293T_LD extract in 20 mM HEPES-Na pH 7.4, 500 mM NaCl, 1% Triton X-100; medium treated with RNases A and T1 or with BSA, 30 min RT; retained material eluted with LDS; label-swapped SILAC

Sequence of UniProt O00370 (O00370 whole entry): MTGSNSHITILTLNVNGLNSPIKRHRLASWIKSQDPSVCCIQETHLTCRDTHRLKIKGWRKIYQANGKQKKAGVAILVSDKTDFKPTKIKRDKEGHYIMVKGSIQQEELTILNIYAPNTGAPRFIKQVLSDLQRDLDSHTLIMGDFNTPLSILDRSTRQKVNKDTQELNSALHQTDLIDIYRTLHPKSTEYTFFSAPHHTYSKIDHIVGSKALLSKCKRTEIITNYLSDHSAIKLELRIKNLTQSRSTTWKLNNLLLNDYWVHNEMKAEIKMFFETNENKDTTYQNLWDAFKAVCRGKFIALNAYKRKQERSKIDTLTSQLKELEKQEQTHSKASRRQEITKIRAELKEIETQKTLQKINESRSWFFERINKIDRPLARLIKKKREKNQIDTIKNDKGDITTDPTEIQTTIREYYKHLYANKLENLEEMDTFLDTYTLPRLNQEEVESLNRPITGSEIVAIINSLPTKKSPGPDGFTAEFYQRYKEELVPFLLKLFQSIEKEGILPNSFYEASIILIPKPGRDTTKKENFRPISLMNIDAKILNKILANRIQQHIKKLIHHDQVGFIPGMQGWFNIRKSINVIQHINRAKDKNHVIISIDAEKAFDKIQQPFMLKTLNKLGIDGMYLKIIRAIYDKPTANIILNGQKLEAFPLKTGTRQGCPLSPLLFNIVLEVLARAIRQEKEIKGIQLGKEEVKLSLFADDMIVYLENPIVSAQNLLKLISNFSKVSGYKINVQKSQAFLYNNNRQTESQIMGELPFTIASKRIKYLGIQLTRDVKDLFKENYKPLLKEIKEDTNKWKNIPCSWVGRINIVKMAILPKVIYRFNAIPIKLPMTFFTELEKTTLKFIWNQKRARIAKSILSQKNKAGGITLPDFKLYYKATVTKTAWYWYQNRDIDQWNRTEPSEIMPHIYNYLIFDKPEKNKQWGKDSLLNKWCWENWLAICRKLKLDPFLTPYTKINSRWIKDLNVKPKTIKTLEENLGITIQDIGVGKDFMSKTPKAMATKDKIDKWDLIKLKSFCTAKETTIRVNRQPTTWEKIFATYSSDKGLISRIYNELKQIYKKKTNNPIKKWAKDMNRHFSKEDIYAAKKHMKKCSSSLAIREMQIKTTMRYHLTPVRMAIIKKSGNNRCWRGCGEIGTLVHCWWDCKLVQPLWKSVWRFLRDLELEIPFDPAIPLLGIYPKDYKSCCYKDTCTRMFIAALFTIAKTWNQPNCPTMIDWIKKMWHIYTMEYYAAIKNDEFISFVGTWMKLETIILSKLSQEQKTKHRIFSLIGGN

## Regulator of nonsense transcripts 1 (from UniProt Q92900 1-1129) (natural protein)
  RNase sensitivity relative to that of MOV10: 62%
